Measured values taken from publication PMC4691241, “Activation of ULK Kinase and Autophagy by GABARAP Trafficking from the Centrosome Is Regulated by WAC and GM130” (Molecular Cell, 2015).

T1: Strep-Tag II-GM130, purified (human, UniProt Q08379 1-1002)
T1 construct: human GM130 isoform 1; also called Strep II-GM130; purified GM130; source: purified
T1 sequence (looked up): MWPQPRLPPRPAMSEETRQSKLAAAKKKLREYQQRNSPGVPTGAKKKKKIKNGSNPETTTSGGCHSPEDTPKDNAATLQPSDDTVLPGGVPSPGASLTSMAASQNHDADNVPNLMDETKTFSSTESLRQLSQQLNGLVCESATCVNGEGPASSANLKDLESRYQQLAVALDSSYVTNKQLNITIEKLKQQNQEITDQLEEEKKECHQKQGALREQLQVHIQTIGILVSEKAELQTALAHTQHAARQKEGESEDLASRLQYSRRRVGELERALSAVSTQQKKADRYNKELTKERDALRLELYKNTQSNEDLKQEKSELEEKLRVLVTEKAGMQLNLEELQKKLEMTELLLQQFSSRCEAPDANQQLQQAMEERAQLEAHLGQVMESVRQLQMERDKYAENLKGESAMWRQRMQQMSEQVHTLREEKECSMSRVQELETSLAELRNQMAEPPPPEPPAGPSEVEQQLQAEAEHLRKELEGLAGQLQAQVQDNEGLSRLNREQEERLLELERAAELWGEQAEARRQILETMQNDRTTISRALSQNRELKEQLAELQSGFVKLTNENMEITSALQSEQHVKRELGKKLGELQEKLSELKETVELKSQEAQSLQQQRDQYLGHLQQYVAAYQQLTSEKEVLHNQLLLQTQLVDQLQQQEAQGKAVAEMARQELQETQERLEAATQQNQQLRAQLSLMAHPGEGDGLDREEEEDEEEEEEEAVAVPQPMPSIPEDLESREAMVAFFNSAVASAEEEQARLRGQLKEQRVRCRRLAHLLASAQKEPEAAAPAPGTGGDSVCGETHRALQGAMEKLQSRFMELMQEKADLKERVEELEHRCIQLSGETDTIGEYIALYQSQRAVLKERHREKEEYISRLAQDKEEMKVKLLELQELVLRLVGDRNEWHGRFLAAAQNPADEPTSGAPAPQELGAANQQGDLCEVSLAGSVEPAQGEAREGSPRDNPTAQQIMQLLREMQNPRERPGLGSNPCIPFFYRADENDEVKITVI

B1: recombinant WAC 320–647 (domain or fragment, human, UniProt Q9BTA9 320-647, looked up)
chain: TTPSTSSASGLNPTSAPPTSASAVPVSPVPQSPIPPLLQDPNLLRQLLPALQATLQLNNSNVDISKINEVLTAAVTQASLQSIIHKFLTAGPSAFNITSLISQAAQLSTQAQPSNQSPMSLTSDASSPRSYVSPRISTPQTNTVPIKPLISTPPVSSQPKVSTPVVKQGPVSQSATQQPVTADKQQGHEPVSPRSLQRSSSQRSPSPGPNHTSNSSNASNATVVPQNSSARSTCSLTPALAAHFSENLIKHVQGWPADHAEKQASRLREEAHNMGTIHMSEICTELKNLRSLVRVCEIQATLREQRILFLRQQIKELEKLKNQNSFMV
notes: human WAC isoform 1, residues 320-647 (the C-terminal half, CT); source: recombinant
B2: GST-WAC FL (natural protein, human, UniProt Q9BTA9 1-647, looked up)
chain: MVMYARKQQRLSDGCHDRRGDSQPYQALKYSSKSHPSSGDHRHEKMRDAGDPSPPNKMLRRSDSPENKYSDSTGHSKAKNVHTHRVRERDGGTSYSPQENSHNHSALHSSNSHSSNPSNNPSKTSDAPYDSADDWSEHISSSGKKYYYNCRTEVSQWEKPKEWLEREQRQKEANKMAVNSFPKDRDYRREVMQATATSGFASGMEDKHSSDASSLLPQNILSQTSRHNDRDYRLPRAETHSSSTPVQHPIKPVVHPTATPSTVPSSPFTLQSDHQPKKSFDANGASTLSKLPTPTSSVPAQKTERKESTSGDKPVSHSCTTPSTSSASGLNPTSAPPTSASAVPVSPVPQSPIPPLLQDPNLLRQLLPALQATLQLNNSNVDISKINEVLTAAVTQASLQSIIHKFLTAGPSAFNITSLISQAAQLSTQAQPSNQSPMSLTSDASSPRSYVSPRISTPQTNTVPIKPLISTPPVSSQPKVSTPVVKQGPVSQSATQQPVTADKQQGHEPVSPRSLQRSSSQRSPSPGPNHTSNSSNASNATVVPQNSSARSTCSLTPALAAHFSENLIKHVQGWPADHAEKQASRLREEAHNMGTIHMSEICTELKNLRSLVRVCEIQATLREQRILFLRQQIKELEKLKNQNSFMV
notes: human WAC isoform 1, full length; also called recombinant GST-WAC; source: recombinant

Columns and labels:
[1] = target: T1, Strep-Tag II-GM130, purified; test: pull-down; purified Strep II-GM130 incubated with recombinant WAC 320–647 before binding to recombinant GST or GST-GABARAP beads, immunoblot; settings: both partners purified
[2] = target: T1, Strep-Tag II-GM130, purified; test: pull-down; GST-WAC FL or ΔCC incubated with purified Strep-Tag II-GM130; GST-WAC monitored by Ponceau S; settings: both partners purified

Row | Binder | binding result [1] | binding result [2]
1 | B1 | binds | 
2 | B2 |  | binds
